Consider 5 molecules from patent EP4803151A2 (Lepu Biopharma Co., Ltd., dated 2026).

The target in test [1] is T1, human DLL1 his tag fusion protein (Sino Biological, Cat. No. 11635-H08H) (human, UniProt O00548 18-540).
T1 construct: Bought protein; also called hDLL1-his; hDLL1 protein; not shown: his tag
T1 sequence (looked up): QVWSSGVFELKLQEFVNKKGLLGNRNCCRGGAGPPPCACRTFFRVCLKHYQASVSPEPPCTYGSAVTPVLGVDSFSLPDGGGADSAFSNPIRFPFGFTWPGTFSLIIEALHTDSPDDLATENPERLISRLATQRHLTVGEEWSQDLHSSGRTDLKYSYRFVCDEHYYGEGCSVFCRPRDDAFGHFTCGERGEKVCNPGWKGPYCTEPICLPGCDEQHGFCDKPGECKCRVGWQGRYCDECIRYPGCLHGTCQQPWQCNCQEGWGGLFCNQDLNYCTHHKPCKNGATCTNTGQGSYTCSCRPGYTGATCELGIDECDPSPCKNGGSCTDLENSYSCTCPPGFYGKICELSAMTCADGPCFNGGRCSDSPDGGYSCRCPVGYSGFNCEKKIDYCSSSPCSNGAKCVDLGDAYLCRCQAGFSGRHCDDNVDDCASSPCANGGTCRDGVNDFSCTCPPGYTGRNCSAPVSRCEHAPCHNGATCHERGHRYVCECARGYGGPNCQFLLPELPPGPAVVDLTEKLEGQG
In words: ELISA, hDLL1-his coated at 1 ug/mL. A general note: An ELISA detects its analyte on a solid surface through an enzyme-linked reagent.

For test [2], the target named is T2, human DLL4 his tag fusion protein (Sino Biological, Cat. No. 10171-H08H) (human, UniProt Q9NR61 27-524).
T2 construct: Bought protein; also called hDLL4-his; hDLL4 protein; not shown: his tag
Briefly: ELISA, hDLL4-his coated at 1 ug/mL.

Test [3] deals with T3, mouse DLL3 his tag protein (KACTUS, Cat. No. DLL-MM103) (mouse, UniProt O88516 33-490, limits assumed).
T3 construct: Bought protein; also called mDLL3-his; mouse DLL3 protein; not shown: his tag
T3 sequence (looked up): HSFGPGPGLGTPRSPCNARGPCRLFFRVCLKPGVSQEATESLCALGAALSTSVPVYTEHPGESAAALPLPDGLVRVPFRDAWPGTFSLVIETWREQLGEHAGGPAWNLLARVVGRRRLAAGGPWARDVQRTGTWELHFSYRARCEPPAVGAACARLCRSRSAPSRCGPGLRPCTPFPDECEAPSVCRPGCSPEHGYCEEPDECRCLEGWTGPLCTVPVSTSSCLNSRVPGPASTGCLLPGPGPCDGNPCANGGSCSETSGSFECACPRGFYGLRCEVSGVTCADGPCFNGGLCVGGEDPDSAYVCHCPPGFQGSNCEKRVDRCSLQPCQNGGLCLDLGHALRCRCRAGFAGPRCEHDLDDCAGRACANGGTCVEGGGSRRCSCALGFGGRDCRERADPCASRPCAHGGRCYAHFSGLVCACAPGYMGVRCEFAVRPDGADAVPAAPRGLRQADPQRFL
Briefly: ELISA, mDLL3-his coated at 1 ug/mL.

Test [4] deals with T4, human full length DLL1 expressed on CHO-K1 cells (human, UniProt O00548 18-723).
T4 construct: whole, on cells; also called CHO-K1-hDLL1
T4 sequence (looked up): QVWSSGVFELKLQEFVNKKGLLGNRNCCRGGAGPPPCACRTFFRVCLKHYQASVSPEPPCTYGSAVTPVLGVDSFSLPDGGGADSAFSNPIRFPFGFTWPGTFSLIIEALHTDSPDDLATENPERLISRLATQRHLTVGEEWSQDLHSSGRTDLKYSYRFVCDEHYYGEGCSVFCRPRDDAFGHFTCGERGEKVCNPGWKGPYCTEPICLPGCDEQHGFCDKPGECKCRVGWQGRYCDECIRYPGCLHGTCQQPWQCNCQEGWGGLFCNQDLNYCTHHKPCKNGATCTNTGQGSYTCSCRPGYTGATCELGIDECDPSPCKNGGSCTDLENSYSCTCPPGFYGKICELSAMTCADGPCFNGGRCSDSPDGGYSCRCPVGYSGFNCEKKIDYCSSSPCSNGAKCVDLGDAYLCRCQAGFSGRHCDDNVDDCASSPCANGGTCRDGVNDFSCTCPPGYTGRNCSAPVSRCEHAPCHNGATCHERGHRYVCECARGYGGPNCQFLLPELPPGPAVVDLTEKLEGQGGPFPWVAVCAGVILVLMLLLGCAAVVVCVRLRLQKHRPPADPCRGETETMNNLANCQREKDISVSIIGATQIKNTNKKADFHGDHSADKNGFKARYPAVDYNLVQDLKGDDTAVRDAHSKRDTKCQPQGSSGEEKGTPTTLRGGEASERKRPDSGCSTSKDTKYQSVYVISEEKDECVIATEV
Briefly: flow cytometry on CHO-K1-hDLL1 cells. In general terms: In flow cytometry, cells or beads pass a laser one at a time.

The target in test [5] is T5, ECD of human DLL3 over-expressed on HEK293 cells (human, UniProt Q9NYJ7 27-492).
T5 construct: extracellular domain; also called HEK293-hDLL3; human DLL3 expressed on HEK293 cells
T5 sequence (looked up): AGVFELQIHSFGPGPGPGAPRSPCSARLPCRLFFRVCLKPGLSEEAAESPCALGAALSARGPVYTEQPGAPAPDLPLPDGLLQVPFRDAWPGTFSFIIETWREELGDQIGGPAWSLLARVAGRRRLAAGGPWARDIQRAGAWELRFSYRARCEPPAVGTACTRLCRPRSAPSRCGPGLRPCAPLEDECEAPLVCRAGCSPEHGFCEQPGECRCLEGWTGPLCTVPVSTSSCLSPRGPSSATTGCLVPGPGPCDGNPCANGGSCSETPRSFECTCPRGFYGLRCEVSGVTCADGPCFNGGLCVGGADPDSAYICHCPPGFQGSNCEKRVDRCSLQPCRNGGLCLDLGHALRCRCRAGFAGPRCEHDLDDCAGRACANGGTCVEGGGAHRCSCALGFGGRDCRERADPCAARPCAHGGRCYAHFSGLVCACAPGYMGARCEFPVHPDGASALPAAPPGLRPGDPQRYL
Briefly: flow cytometry on HEK293-hDLL3 cells.

The target in test [6] is T6, human DLL3 endogenously expressed on SCLC tumor cell lines SHP77 and NCI-H82 (human, UniProt Q9NYJ7 27-618).
T6 construct: whole, on cells; also called human DLL3 expressed on tumor cells
T6 sequence (looked up): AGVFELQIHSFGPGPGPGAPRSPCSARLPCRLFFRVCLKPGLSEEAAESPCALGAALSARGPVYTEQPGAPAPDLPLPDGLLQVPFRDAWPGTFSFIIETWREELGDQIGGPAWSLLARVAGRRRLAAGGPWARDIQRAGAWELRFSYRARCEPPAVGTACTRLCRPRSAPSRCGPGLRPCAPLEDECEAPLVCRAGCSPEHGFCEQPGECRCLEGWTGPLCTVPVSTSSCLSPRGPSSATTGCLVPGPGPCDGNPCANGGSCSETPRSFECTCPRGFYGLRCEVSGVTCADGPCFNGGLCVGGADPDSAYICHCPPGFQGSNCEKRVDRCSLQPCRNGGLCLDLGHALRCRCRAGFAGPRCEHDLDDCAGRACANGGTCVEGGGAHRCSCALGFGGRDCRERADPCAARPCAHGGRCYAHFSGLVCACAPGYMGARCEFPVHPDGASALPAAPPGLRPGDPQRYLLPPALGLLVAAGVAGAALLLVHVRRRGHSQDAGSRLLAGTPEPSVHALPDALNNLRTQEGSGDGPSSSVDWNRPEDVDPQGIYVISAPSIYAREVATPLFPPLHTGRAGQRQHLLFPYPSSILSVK
Briefly: flow cytometry on SHP77 and NCI-H82 cells.

For test [7], the target named is T7, ECD of human DLL3 protein fused with his tag (Acro Bio, Cat. No. DL3-H52H4) (human, UniProt Q9NYJ7 27-492).
T7 construct: range 27-492; Bought protein; also called hDLL3-his; human DLL3-his protein; not shown: his tag
T7 sequence (looked up): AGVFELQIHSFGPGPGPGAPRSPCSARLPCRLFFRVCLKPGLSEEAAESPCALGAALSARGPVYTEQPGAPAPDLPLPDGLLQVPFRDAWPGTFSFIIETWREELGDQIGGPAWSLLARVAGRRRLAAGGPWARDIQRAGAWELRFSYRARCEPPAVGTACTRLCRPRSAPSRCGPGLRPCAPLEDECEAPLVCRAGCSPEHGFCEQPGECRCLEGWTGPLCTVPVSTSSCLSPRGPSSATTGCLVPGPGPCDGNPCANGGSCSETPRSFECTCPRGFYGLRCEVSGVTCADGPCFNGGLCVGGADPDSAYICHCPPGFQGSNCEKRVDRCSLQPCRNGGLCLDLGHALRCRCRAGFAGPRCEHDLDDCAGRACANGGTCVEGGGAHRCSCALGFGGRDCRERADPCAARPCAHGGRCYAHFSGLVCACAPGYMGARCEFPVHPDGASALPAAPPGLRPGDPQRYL
Briefly: SPR, Biacore 8K, antibody captured on Protein A chip, single dose of human DLL3-his. A general note: SPR reads the build-up and loss of mass on a sensor chip optically.

For test [8], the target named is T7, ECD of human DLL3 protein fused with …. In words: ELISA, hDLL3-his coated.
Test [9] deals with T8, human full length DLL4 expressed on CHO-K1 cells (human, UniProt Q9NR61 27-685).
T8 construct: whole, on cells; also called CHO-K1-hDLL4
Briefly: flow cytometry on CHO-K1-hDLL4 cells.

T2 sequence (Q9NR61 27-524 limits assumed): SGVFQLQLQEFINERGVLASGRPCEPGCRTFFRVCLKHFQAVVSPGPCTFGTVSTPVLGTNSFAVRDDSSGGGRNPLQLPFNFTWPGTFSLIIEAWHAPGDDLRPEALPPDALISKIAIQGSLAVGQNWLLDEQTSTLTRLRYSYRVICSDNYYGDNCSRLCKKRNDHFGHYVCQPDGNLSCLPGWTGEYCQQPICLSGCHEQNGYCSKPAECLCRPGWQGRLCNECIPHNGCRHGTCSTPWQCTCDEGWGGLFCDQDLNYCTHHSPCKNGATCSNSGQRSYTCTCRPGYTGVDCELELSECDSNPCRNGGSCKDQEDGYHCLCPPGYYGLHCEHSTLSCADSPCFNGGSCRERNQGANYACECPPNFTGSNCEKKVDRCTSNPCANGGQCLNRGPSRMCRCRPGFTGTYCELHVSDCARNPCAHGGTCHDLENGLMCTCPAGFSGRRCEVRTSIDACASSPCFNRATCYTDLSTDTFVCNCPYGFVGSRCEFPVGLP
T8 sequence (Q9NR61 27-685): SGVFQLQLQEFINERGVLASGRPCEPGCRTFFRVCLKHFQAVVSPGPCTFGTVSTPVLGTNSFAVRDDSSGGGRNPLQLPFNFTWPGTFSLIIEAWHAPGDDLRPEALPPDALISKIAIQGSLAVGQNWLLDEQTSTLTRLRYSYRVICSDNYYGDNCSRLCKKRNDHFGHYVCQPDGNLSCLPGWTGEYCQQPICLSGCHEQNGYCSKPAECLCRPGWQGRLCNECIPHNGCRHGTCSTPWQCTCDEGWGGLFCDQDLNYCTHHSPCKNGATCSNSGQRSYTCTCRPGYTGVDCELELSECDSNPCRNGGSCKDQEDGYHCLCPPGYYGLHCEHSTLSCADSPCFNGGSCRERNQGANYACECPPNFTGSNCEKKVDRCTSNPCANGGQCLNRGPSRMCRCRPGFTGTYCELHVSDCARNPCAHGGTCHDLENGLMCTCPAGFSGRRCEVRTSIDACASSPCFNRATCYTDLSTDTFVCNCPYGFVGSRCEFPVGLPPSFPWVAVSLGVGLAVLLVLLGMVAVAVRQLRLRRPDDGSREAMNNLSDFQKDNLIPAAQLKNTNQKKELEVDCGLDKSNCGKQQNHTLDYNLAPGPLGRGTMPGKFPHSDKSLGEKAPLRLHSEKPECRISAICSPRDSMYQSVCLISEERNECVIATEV

B1: 362H3D3-hIgG1 chimeric antibody (antibody, V domains shown)
VH: EVQLQQSGPELLKPGASVKISCKASGYTFTDYTMHWVKQSHGRSLEWIGGIHPNYGGTSYNEKFKDKATLTVDKSSSTAYMEFRSLTSEDSAVYYCARWGYYGGSYWYFDVWGTGTTVTVSS
VL: DIQMTQSPASLSVSVGETVTITCRASENIYSNLAWYQQKQGKSPQLLVYAATNLADGVPSRFSGSGSGTQYSLKINSLQSEDFGSYYCQHFWGTPYTFGGGTKLEIKR
B1: the binding result in [1], in test [2], in test [3], in [4], in test [5] and in test [6] was “binds” in each case. Moreover, in [7], the binding result is given as “binds”.

B2: 310P3C5-z15 humanized antibody (antibody, human IgG1, kappa, V domains shown)
VH: QVQLVQSGAEVKKPGASVKVSCKASGYTFTDFYMNWVKQAPGQGLEWIGDANPNNGGTTHNPRFKGRATLTVDKSASTAYMELRSLRSEDTAVYYCARGGLPGDFDYWGQGTTVTVSS
VL: DIQMTQSPSSLSASVGDRVTITCKASEDIYNRLAWYQQKPGKAPKLLISGVTSLETGVPSRFSGSGSGTDFTFTISSLQPEDIATYYCQQYWSFPWTFGGGTKVEIKR
notes: human IgG1
B2: the binding result in [8] is on record as “binds”; in test [4] it was “no binding”; in test [9], “no binding”; in test [5], “binds”; in [6] it was “binds”.

B3: 310P3C5-hIgG1 chimeric antibody (antibody, V domains shown)
VH: EVQLQQSGPELVKPGASVKISCKASGYTFTDFYMNWVKQTHGKSLEWIGDANPNNGGTTHNPRFKGQATLTVDKSSNTAYMELRSLTSEDSAVYYCARGGLPGDFDYWGQGTTLTVSS
VL: DIQMTQSSSSFSVSLGDRVTITCKASEDIYNRLAWYQQKPGNAPRLLISGVTSLETGVPSRFSGSGSGKDYTLSITSLQTEDVATYYCQQYWSFPWTFGGGTKLEIKR
Regarding B3, the binding result in test [1] is reported as “no binding (tested: up to 100 nM)”; in test [2], “no binding (tested: up to 100 nM)”; in test [3], “binds”; in test [4], “no binding (tested: highest dose level 100 nM)”; in test [5] it was “binds”; in test [6], “binds”. Besides, in test [7], the binding result is reported as “binds”.

B4: 129H2B9-hIgG1 chimeric antibody (antibody, V domains shown)
VH: EVNLEESGGGLVQPGGSMKLSCVVSGFTFSNYWMSWVRQSPEKGLEWVAEIRLKSDNYATHYAESVKGKFTISRDDSKSRLYLQMNSLRPEDTGIYYCTSNRFAYWGQGTLVTVSA
VL: NIVMTQSPKSVSMSVGERVTLSCKASENVGTYVYWYQQKPEQSPKMMIYGASNRYTGVPDRFTGSGSATDFTLTIRSVQAEDLADYHCGQSYSYPFTFGSGTKLEIKR
Consider B4, for which the binding result is “no binding (tested: up to 100 nM)” in [1]; “no binding (tested: up to 100 nM)” in test [2]; “binds” in test [3]; “no binding (tested: highest dose level 100 nM)” in test [4]; “binds” in test [5]; “binds” in test [7].

B5: 148C3A7-hIgG1 chimeric antibody (antibody, V domains shown)
VH: EVQLQQSGPELIKPGTSVKMSCKASGYTFTTYLMHWVKQKPGQGLEWIGYINPYNDVTEYHEKFKDKATLTSDKSSSTAYMELSSLTSEDSAVYYCARLGGYGPGWYLDVWGAGTTVTVSS
VL: DIQMTQSPASLSASVGETVTITCRASGSIHNYLAWYLHKQGKSPQLLVYNAKTLADGVPSRFSGSGSGTQYSLKINSLQPEDFGSYYCHHFWSTPWTFGGGTKLEIKR
For the molecule B5, the binding result is reported as “no binding (tested: up to 100 nM)” in test [1]; “no binding (tested: up to 100 nM)” in test [2]; “binds” in test [3]; “no binding (tested: highest dose level 100 nM)” in test [4]; “binds” in test [5]; “binds” in [6]. Besides, the binding result in [7] is “binds”.
